According to the supplement of paper PMC9170038:

Test system: MS2 coat protein
Test: apparent KD of MS2 coat protein; designed switch direction (-1 OFF switch, 1 ON switch): -1; higher = weaker reporter binding
How it was run: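 Stalled E. coli RNA polymerase transcribed designed RNA switches on Illumina chips, which were then titrated with SNAP-549-labelled MS2 coat protein, doubling from 0.7 or 1.5 nM to 3 µM. Steps lasted from 0.8–1.5 h at the lowest concentration to 10–20 min at the highest. The apparent KD is each design's median over clusters of curve-fitted normalised fluorescence.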

[1] = Eterna round: R95, input ligand: microRNA oligo, concentration not stated
[2] = input ligand: microRNA oligo, concentration not stated
[3] = Eterna round: R95, input ligand: FMN 200 uM
[4] = Eterna round: R95, input ligand: none

CUUCGACAUGAGGAUCACCCAUGUCAGGAUAUUGUGUAUCGGGUUUUUUACGGUAAGGCAAGAAGGGAUGUGUG [LRO-Excl1-08] (puzzle: Exclusion 1)
apparent KD of MS2 coat protein [1]: 29.9 nM

CUUCGUAUAGAGGAUAUAGGUUACUGCGGUAUCCUAGAAGGCUGUACAUGAGGAUCACCCAUGUACUUCAGAUC [Exclusion 6 - B - 13:c] (puzzle: Exclusion 6)
apparent KD of MS2 coat protein [1]: 12.6 nM

CUUGUUUAUGUAGGAUAUGCCUGGCGUGCCUUUGCAGAAGGACAUGAGGAUCACCCAUGUAACAUGAGGCUCCACCUUGUCGCC [salish99_ExNG1_r04_117] (Eterna round: R96, puzzle: Exclusion NG 1)
apparent KD of MS2 coat protein [2]: 111 nM

CUUGUUUAUGUGAGGAUAUACUGUUAGUAAUGUUUGUAGAAGGUACAUGAGGAUCACCCAUGUUUAUUUAUAUU [JR_BME4_Sub043] (puzzle: Brourd's mod of Exclusion 4)
apparent KD of MS2 coat protein [1]: 18.1 nM

CUUUAGCUAGGAUAUACAUGAGGAUCACCCAUGUUAGCGGUCAAUUGGGCCGCGGGUUGUAGAAGGAGCAUUAA [Aniscerile] (puzzle: Exclusion 3)
apparent KD of MS2 coat protein [1]: 28.6 nM

CUUUAGUGAGGAUAUCAGUAGUAAUACAAUAGUAUUACUACUGAGAAGGCACAUGAGGAUCACCCAUGUUUCUC [Mat - Exclusion 4 - Mod of Omei - D78] (puzzle: Exclusion 4)
apparent KD of MS2 coat protein [1]: 28 nM

CUUUAGUGAGGAUAUCAGUGGUAAUACAAUAGUAUUACUACUGAGAAGGCACAUGAGGAUCACCCAUGUUCCUC [Mat - Exclusion 4 - Mod of Omei - D84] (puzzle: Exclusion 4)
apparent KD of MS2 coat protein [1]: 26.4 nM

CUUUCGUGAGGAUAUCAGUAGUAAAAUAAUAAAAUUACUACUGAGAAGGCACAUGAGGAUCACCCAUGUUCCUC [salish99_ex3_r3_099] (puzzle: Exclusion 4)
apparent KD of MS2 coat protein [1]: 24.9 nM

CUUUUGUGAGGAUAUCAGGUGUGCUAGCGUACUGGUACAUCUGAGAAGGCACAUGAGGAUCACCCAUGUUUCUA [Mat - Exclusion 4 - Mod of JL - D38] (puzzle: Exclusion 4)
apparent KD of MS2 coat protein [1]: 64 nM

CUUUUGUGAGGAUAUCAGUAGUAAAAAAAUAAAUUUACUACUGAGAAGGCACAUGAGGAUCACCCAUGUUCCUC [salish99_ex4_r3_025] (puzzle: Exclusion 4)
apparent KD of MS2 coat protein [1]: 42.9 nM

CUUUUGUGAGGAUAUCAGUAGUAAAAUAAUAAUAUUACUACUGAGAAGGCACAUGAGGAUCACCCAUGUUCCUC [Fiskers Ex 4 Super stable 44 mod 1] (puzzle: Exclusion 4)
apparent KD of MS2 coat protein [1]: 39 nM

CUUUUGUGAGGAUAUCAGUAGUAAAUAAAUUAAAUUACUACUGAGAAGGCACAUGAGGAUCACCCAUGUUCCUC [salish99_ex3_r3_081] (puzzle: Exclusion 4)
apparent KD of MS2 coat protein [1]: 39.3 nM

CUUUUGUGAGGAUAUCAGUAGUAAAUAUAUAAAAUUACUACUGAGAAGGCACAUGAGGAUCACCCAUGUUCCUC [salish99_ex3_r3_079] (puzzle: Exclusion 4)
apparent KD of MS2 coat protein [1]: 38.8 nM

CUUUUGUGAGGAUAUCAGUAGUAAUAAAAUAAAAUUACUACUGAGAAGGCACAUGAGGAUCACCCAUGUUCCUC [salish99_ex4_r3_018] (puzzle: Exclusion 4)
apparent KD of MS2 coat protein [1]: 37.6 nM

CUUUUGUGAGGAUAUCAGUAGUAAUACAAUAGUAUUACUACUGAGAAGGCACAUGAGGAUCACCCAUGUUCCUC [Ex4 344 Omei mod 0] (puzzle: Exclusion 4)
apparent KD of MS2 coat protein [1]: 40.5 nM

CUUUUGUGAGGAUAUCAGUGGUAAUACAAUAGUAUUACUACUGAGAAGGCACAUGAGGAUCACCCAUGUUCCUC [Ex4 344 Omei mod 11] (puzzle: Exclusion 4)
apparent KD of MS2 coat protein [1]: 43.1 nM

CUUUUGUGAGGAUAUUAGUAGUAUAUAAUUGGUGAUAUUGCUGAGAAGGCACAUGAGGAUCACCCAUGUACAAC [JR_Ex4_Sub034] (Eterna round: R97, puzzle: Exclusion 4)
apparent KD of MS2 coat protein (input ligand: FMN 200 uM): 369 nM | apparent KD of MS2 coat protein (input ligand: none): 441 nM

CUUUUGUGAGGAUAUUAGUAGUUAAUAAAUAAAAUUACUACUGAGAAGGCACAUGAGGAUCACCCAUGUUCCUC [salish99_ex4_r3_051] (puzzle: Exclusion 4)
apparent KD of MS2 coat protein [1]: 32.8 nM

CUUUUGUGAGGAUAUUGGUAGUAAAUAAAUAAAAUUACUACUGAGAAGGCACAUGAGGAUCACCCAUGUUCCUC [salish99_ex4_r3_070] (puzzle: Exclusion 4)
apparent KD of MS2 coat protein [1]: 30.7 nM

GAAAACGAUGAGGAUAUAUGAUAUCAAAGCAUCAUAGAAGGCAUCACAUGAGGAUCACCCAUGUGAUCUUCUUG [Mat - Exclusion 6 - JL Mod - D31] (Eterna round: R97, puzzle: Exclusion 6)
apparent KD of MS2 coat protein (input ligand: FMN 200 uM): 164 nM | apparent KD of MS2 coat protein (input ligand: none): 26.6 nM

GAAAACGCAGAGGAUAUUUCAGAUCAAAGCUGCAAAGAAGGCUGCACAUGAGGAUCACCCAUGUGGUCUUAAAA [Mod of Quesina 2 - Jieux - Exclusion 6] (Eterna round: R97, puzzle: Exclusion 6)
apparent KD of MS2 coat protein (input ligand: FMN 200 uM): 337 nM | apparent KD of MS2 coat protein (input ligand: none): 23.8 nM

GAAAAGAAGCUAGGAUAUGCAUGACGGAUACCCGUGAGCACGUAGCAGACAUGAGGAUCACCCAUGUAGAAGGAGCGAAGAAAU [Veteriat] (Eterna round: R96, puzzle: Exclusion NG 2)
apparent KD of MS2 coat protein (input ligand: FMN 200 uM): 251 nM | apparent KD of MS2 coat protein [2]: 43.6 nM | apparent KD of MS2 coat protein (input ligand: none): 52.8 nM

GAAAAGCUAGGAUAUACAUGAGGAUCACCCAUGUAAGGUCGCUUCUUAUAUAGGGCAUGUAGAAGGAGCAAAGA [Eneriner] (puzzle: Exclusion 3)
apparent KD of MS2 coat protein [3]: 70.6 nM | apparent KD of MS2 coat protein [1]: 35.9 nM | apparent KD of MS2 coat protein [4]: 32.1 nM

GAAAAGGGAGGAUAUACAAGAAGAAAAGAAAAGAAAAGAAAACAUGAGGAUCACCCAUGUAGAAGGCCCAAAAG [Default title] (puzzle: Exclusion 2)
apparent KD of MS2 coat protein [3]: 22.6 nM | apparent KD of MS2 coat protein [1]: 18.7 nM | apparent KD of MS2 coat protein [4]: 23.8 nM

GAAAAGGUAGGAUAUACAAAAAAAAAGGGUAGAAAAAAAACACAUGAGGAUCACCCAUGUAGAAGGACCAAAAG [salish99_ex2_r3_057] (puzzle: Exclusion 2)
apparent KD of MS2 coat protein [3]: 83.7 nM | apparent KD of MS2 coat protein [1]: 37 nM | apparent KD of MS2 coat protein [4]: 25.9 nM

GAAAAGGUAGGAUAUACGAAAAAAAAGGGUAGAAAAAAAACACAUGAGGAUCACCCAUGUAGAAGGACCAUAAG [salish99_ex2_r3_091] (puzzle: Exclusion 2)
apparent KD of MS2 coat protein [3]: 63.3 nM | apparent KD of MS2 coat protein [1]: 29.9 nM | apparent KD of MS2 coat protein [4]: 29.2 nM

GAAAAGGUAGGAUAUACGAAAAAAAAGGGUAGAAAAAAAACACAUGAGGAUCACCCAUGUAGAAGGACCUAAAG [salish99_ex2_r3_090] (puzzle: Exclusion 2)
apparent KD of MS2 coat protein [3]: 56.1 nM | apparent KD of MS2 coat protein [1]: 25.7 nM | apparent KD of MS2 coat protein [4]: 24.6 nM

GAAAAGGUAGGAUAUACGAAAAAAAAGGGUAGAAAAAAAUCACAUGAGGAUCACCCAUGUAGAAGGACCAAAAG [salish99_ex2_r3_072] (puzzle: Exclusion 2)
apparent KD of MS2 coat protein [3]: 62.3 nM | apparent KD of MS2 coat protein [1]: 25 nM | apparent KD of MS2 coat protein [4]: 28.3 nM

GAAAAGGUAGGAUAUACGAAAAAAAAGGGUUGAAAAAAAACACAUGAGGAUCACCCAUGUAGAAGGACCAAAAG [salish99_ex2_r3_080] (puzzle: Exclusion 2)
apparent KD of MS2 coat protein [3]: 140 nM | apparent KD of MS2 coat protein [1]: 19.7 nM | apparent KD of MS2 coat protein [4]: 26 nM

GAAAAGGUAGGAUAUACGAAAAGAAAGGGUAGAAAGAAAACACAUGAGGAUCACCCAUGUAGAAGGACCAAAAG [salish99_ex2_r3_095] (puzzle: Exclusion 2)
apparent KD of MS2 coat protein [3]: 37.3 nM | apparent KD of MS2 coat protein [1]: 14.6 nM | apparent KD of MS2 coat protein [4]: 26.8 nM

GAAAAGUGAGGAUAUGCUCGAUCCUGGCACCAAGUGAAGUCACUUGAGGAUCACCCAAGUAGAAGGCACAUAAA [Tiederes] (Eterna round: R97, puzzle: Exclusion 2)
apparent KD of MS2 coat protein (input ligand: FMN 200 uM): 206 nM | apparent KD of MS2 coat protein (input ligand: none): 55.3 nM

GAAAAUGUGGAGGAUAUCGACUUCGAAAGAAGUCGAGAAGGCCACACAUGAGGAUCACCCAUGUGUUGCUUAUA [Omei Ex6 H7] (Eterna round: R97, puzzle: Exclusion 6)
apparent KD of MS2 coat protein (input ligand: FMN 200 uM): 20.7 nM | apparent KD of MS2 coat protein (input ligand: none): 16 nM

GAAAAUUGGGCAGGAUAUCUAAUGAAAGAAACCGGAGAAGGGCCGGUGGCAAUUGCAGACAUGAGGAUCACCCAUGUAGUUGCA [Eternabot solution 42] (Eterna round: R96, puzzle: Exclusion NG 1)
apparent KD of MS2 coat protein (input ligand: FMN 200 uM): 13.5 nM | apparent KD of MS2 coat protein [2]: 15.2 nM | apparent KD of MS2 coat protein (input ligand: none): 14.9 nM

GAAAGGUGAGGAUAUACACUGCGGUGUAGUCCUCAUAAAAGACAUGAGGAUCACCCAUGUAGAAGGCACAUAAA [Rirereis] (puzzle: Exclusion 2)
apparent KD of MS2 coat protein [3]: 96 nM | apparent KD of MS2 coat protein [1]: 32.8 nM | apparent KD of MS2 coat protein [4]: 27.5 nM

GAACUGAGGCUUUGCUUUAGUCGUACAUGAGGAUCACCCAUGUAGGAUAUGGUAGGCUUUGCUUACCAGAAGGACAGAGUGAUC [JL EXNG3 1.21] (Eterna round: R96, puzzle: Exclusion NG 3)
apparent KD of MS2 coat protein (input ligand: FMN 200 uM): 52.9 nM | apparent KD of MS2 coat protein [2]: 192 nM | apparent KD of MS2 coat protein (input ligand: none): 195 nM

GAAGAAGAGAGAAUAGAAAACAUGAGGAUCACCCAUGUUAAGAGAUGAGGGUGUAAUAGGAUUUUUGCUCGUCUUAU (puzzle: Sensor v3, turn-off variant 1)
apparent KD of MS2 coat protein [3]: 38.3 nM | apparent KD of MS2 coat protein [1]: 54 nM | apparent KD of MS2 coat protein [4]: 40.5 nM

GAAGAGACAGGAUAUACAUGAGGAUCACCCAUGUGAGGAGGUUGGAAGCGGAGAAGGUGUAGAAGGGUCAAAGA [JR_Exclu3_Sub023] (puzzle: Exclusion 3)
apparent KD of MS2 coat protein [3]: 75.1 nM | apparent KD of MS2 coat protein [1]: 37.1 nM | apparent KD of MS2 coat protein [4]: 80.7 nM

GAAGAGACAGGAUAUACAUGAGGAUCACCCAUGUGAGUAUGUUGGAGGCGGAGGAGGUGUAGAAGGGUCAAAGA [JR_Exclu3_Sub019] (puzzle: Exclusion 3)
apparent KD of MS2 coat protein [1]: 20.2 nM
